Values of other authors in paper PMC12787518.
Where two headings read alike, the source gives them in different places.

Columns and labels:
[1] = target: His31 (UniProt position 31, TIGIGHLLTKS)
[2] = target: Asp70 (UniProt position 70, KLFNQDVDAAV); settings: folded (native, Asp70-His31 salt bridge formed)

Substance: T4 lysozyme (Enterobacteria phage T4 (Tequatrovirus T4))
- pKa ([1]; folded (native, Asp70-His31 salt bridge formed)): 9.1
- pKa ([1]; unfolded (before folding, no salt bridge), inferred from the wording 'during ... folding'): 6.8
- pKa [2]: 0.5
